Where two headings read alike, the source gives them in different places.
B1: Net_14 (VHH)
VHH: QVQLVESGGGLVQAGGSVRLSCVASGLTFSGYSLGWFRQAPGKEREGVSYISSSGMITDYADSVKGRVTISRDDAKSTMYLQMNSLKPEDTAVYYCAARFPRPRSWLSTDSYNYWGQGAQVTVSS
B2: Net_83 (VHH)
VHH: QVQLVESGGGLVQAGESLRLSCAASGSIRSISFMNWYRQQPGKQRELVAGINQIGNTNYAGSVKGRFTISRDNAKNTVYLQMNSLKPEDTAVYYCNVIVRGTVSPFQFWGQGTQVTVSS

What was measured:
[1] = biological target: T1, Clostridium perfringens NetB toxin (necrotic enteritis B-like toxin) (Clostridium perfringens); test: cell-based or functional assay
[2] = biological target: T1, Clostridium perfringens NetB toxin …; test: SPR (Biacore 8K+), single cycle kinetics, NetB toxin immobilised, pH 7.4
[3] = biological target: T1, Clostridium perfringens NetB toxin …
[4] = biological target: T1, Clostridium perfringens NetB toxin …; test: cell-based or functional assay; remark: listed apart in the source
[5] = biological target: T1, Clostridium perfringens NetB toxin …; remark: listed apart in the source

Row | Binder | IC50 of NetB-induced RBC lysis inhibition after incubation in water, Day 0 [1] [nM] | IC50 of NetB-induced RBC lysis inhibition after incubation in water, Day 1 [1] [nM] | IC50 of NetB-induced RBC lysis inhibition after incubation in water, Day 4 [1] [nM] | Kd [2] [nM] | koff [2] [s⁻¹] | kon [2] [M⁻¹ s⁻¹] | EC50 (read off the curve) [3] [µg/mL] | IC50, inhibition of NetB-induced RBC lysis, 0 min incubation with 30 U/ml pepsin [4] [nM] | EC50 (read off the curve) [5] [µg/mL]
1 | B1 | 44.2 | 53 | 51.1 | 0.095 | 6.32e-05 | 668000 | ~0.02 | 23 | –
2 | B2 | 163 | 168 | 245 | 0.213 | 0.000248 | 1.17e+06 | – | 61 | ~0.03

From patent publication US20250197484A1 (ECO ANIMAL HEALTH, published 2025)
